In the DeepSol protein solubility set:

test: soluble on expression in E. coli; label from the status in PepcDB or PDB records

Q: With “MPDQPSHNPAEHTTGEAPAPDALRADARRNRERVLEAAREVFSARGVDAPMSAVARRAGVGVATLYRRFPTRSSLVAAAFDDQLTVCAAAFDEALADPDPGHGLYTLLRKVCTTLVTDRGFETVFMAGFPASLDYDRERACAEERLAHLVRRARDAGRLREDFSPADIPLLLLAVSGLASQPPETAVPAAHRLLTYLFQSFQADPPPRPAPLPPAPTLDLSGLHRPAERP” as the sequence, how does the “soluble on expression in E. coli” value read?
A: not soluble

Q: With “MSLIHPHIADALKVPDLVRLNDDLVLIRFESMKIYSALAAVRHLLERGTIRPGQTLIDSSSGIYAYALALACHRYGMRCHVVASTTVDTTTRAQLEILGATVEQVRPSRNLKLDQELRVRRVREILADHPDWHWMRQYHDDVHYLGYQEVADRITTAFPSTPLTVVGGVGSGASTGGLVERLRATDPSVRLVGVQPFGSVTFGSQAHHDPEAIIAGIGSSIVFDNVRHHLYDAVHWLDFTHAMSGTIALLRERAVFAGLSTGAGYLAATYEARRHPDRLHLVIGADTGHRYVERVFARHTEALDPAPLKPVEVSAPEEMSMPWSRMAWRRTAEGHHHHHH” as the sequence, how does the “soluble on expression in E. coli” value read?
A: soluble

Q: With “MTDKTIAFSLLDLAPIPEGSSAREAFSHSLDLARLAEKRGYHRYWLAEHHNMTGIASAATSVLIGYLAANTTTLHLGSGGVMLPNHSPLVIAEQFGTLNTLYPGRIDLGLGRAPGSDQRTMMALRRHMSGDIDNFPRDVAELVDWFDARDPNPHVRPVPGYGEKIPVWLLGSSLYSAQLAAQLGLPFAFASHFAPDMLFQALHLYRSNFKPSARLEKPYAMVCINIIAADSNRDAEFLFTSMQQAFVKLRRGETGQLPPPIQNMDQFWSPSEQYGVQQALSMSLVGDKAKVRHGLQSILRETDADEIMVNGQIFDHQARLHSFELAMDVKEELLG” as the sequence, how does the “soluble on expression in E. coli” value read?
A: soluble

Q: With “MNPTDWIDTGAVPPRPLPATVDAALAYLSEALGHPVYAHWTLARVKRRYGSLSDAKAAQPTVLKLLLAHDGAVEYWERGRLRTVPADQAPGPAMVLARLLHTHRRRFRLAASSGNAAAVPAASEAAGLVAAPWLAAYSHAEHTWLARAGRFAQLHAATNTLGVANDAQALALFLRDRTGRSPHTLRAYGAELRRLMRWCGVHEVGPLSDLTRQQLLAYRHTLQHGEPGTENASPQLSEATCTRALAVVASLYGYWYDTGYLQANPAAGLSAGSRARAGFAPTRLIPPALLDACDAWLDASAVDASLPALRRRAIWALYRYAGARLAELVWSDEAALPRLEAEVPGHWTLYVCGKGRKVRAIPLPVPCVAVLRAYRHARGLPPEPPAHEALPVIHGHKGEALQSAGLYREVKAIFAAVADGLQARDPAQALLLRAASPHWLRHAYARTLVVDHQVPLPAAQALLGHASVQTTAAYARTDLTQLRAFVDATFADDAPLEHHHHHH” as the sequence, how does the “soluble on expression in E. coli” value read?
A: not soluble

Q: For “IGKVKYNLGFNLYDAKTKITKYNNETGLFGKDKNDKDTYRVGMELGEIWGYVTDRLYTVDDFDADGKLKAGIPKVEGYNPNPGDILYKDLDDNDIINGGTSTTKDPGDRKIIGNSTRRYQYGIHGGANWKGVSLSFLLQGVGKRDLWIMNDLFYPHYDAWTTVYDTQLNYWTPERTDSYFPRLYEKAAGNTAANTRIQTRYLQDGSYLSIRNITLSYNFPSKWMTKIGVNNLAVFFSGENLYTFDHLPKGLDPERSVTDDLGQRGFTYPYMRQYSFGINLSF”, which “soluble on expression in E. coli” value is on record?
A: not soluble

Q: Which “soluble on expression in E. coli” value does the source give for “MSTTHNSLPASSDKHHDGHGEASLYHDSHGHAWSGNPNYTLTQLIPELRINLGSSLDIGSGEGADAAWLASLGWKAVGLEPSGVAVERSRELSSNATFIQGKVPQDLDRCGGPFDLVTGFYIPIAGEDAWRAIARQVADGGYLIYVHHNLDELRAKGHPLLGRDDLLMPFDAADLAPSGAWEIVVHETRHREIVGGHGHHHHLDDVLVLKRRKK” here?
A: not soluble

Q: For “MTDFLEIRPLTKEAFTPFGDVIETTPSSMRHINGGQTERHHALSAPEAAGEGARIILNIFRGQPRVFPHKIDMMERHPLGSQSFSPLSGRPFLVVVAQDDGGRPARPQVFLARGDQGVNYRRNVWHYPLMPLQAVSDFLVADREGPGNNLEEYFFDEPFMIAEPSLAAALEHHHHHH”, which “soluble on expression in E. coli” value is on record?
A: soluble

Q: For “MSLTQQITLIKDKILSDNYFTLHNITYDLTRKDGEVIRHKREVYDRGNGATILLYNTKKKTVVLIRQFRVATWVNGNESGQLIESCAGLLDNDEPEVCIRKEAIEETGYEVGEVRKLFELYMSPGGVTELIHFFIAEYSDNQRANAGGGVEDEDIEVLELPFSQALEMIKTGEIRDGKTVLLLNYLQTSHLMDEGGSHHHHHH”, which “soluble on expression in E. coli” value is on record?
A: soluble

Q: Which “soluble on expression in E. coli” value does the source give for “MGPTQETYTIVRYQSGTFSKQLDEIVTESPITIKLNGEEYVTVVCTPNYIEDMVIGFLISEGIISSYNDVEELWVQKDNGIVHVKSSKVNPLYQTLYNKRYVTSCCGKGRQGFIFVNDAAKAKDLHDIHVKITPEECFYLMNTLQQSSTTFRQTGGVHNTALCDRNKILLSRMDIGRHNALDKIYGHCLRNDISVKGKIIAFSGRISSEILLKVSKIGCEIVLSKSAPTKLALQLAHDLGITVVGFIRNESCNIYTHPHRIDGYQSNNLEHHHHHH” here?
A: soluble

Q: For “MIVALGADLVEIARVERLLSRHGERALRRLFHEEEVAYALARQNPFPSLAARLAAKEAFQKCWPESLSWKEVWVGMEGKRPALRFAPRIEARMAEEGLFAHLSLSHERSHALAVVVLEARARGGG”, which “soluble on expression in E. coli” value is on record?
A: soluble

Q: For “MGSDKIHHHHHHMETQDYAFQPGLTVGELLKSSQKDWQAAINHRFVKELFAGTIENKVLKDYLIQDYHFFDAFLSMLGACVAHADKLESKLRFAKQLGFLEADEDGYFQKAFKELKVAENDYLEVTLHPVTKAFQDLMYSAVASSDYAHLLVMLVIAEGLYLDWGSKDLALPEVYIHSEWINLHRGPFFAEWVQFLVDELNRVGKNREDLTELQQRWNQAVALELAFFDIGYDV”, which “soluble on expression in E. coli” value is on record?
A: soluble

Q: Which “soluble on expression in E. coli” value does the source give for “MSPAFRAMDVEPRAKGVLLEPFVHQVGGHSCVLRFNETTLCKPLVPREHQFYETLPAEMRKFTPQYKGVVSVRFEEDEDRNLCLIAYPLKGDHGIVDIVDNSDCEPKSKLLRWTTNKKHHVLETEKTPKDWVRQHRKEEKMKSHKLEEEFEWLKKSEVLYYTVEKKGNISSQLKHYNPWSMKCHQQQLQRMKENAKHRNQYKFILLENLTSRYEVPCVLDLKMGTRQHGDDASEEKAANQIRKCQQSTSAVIGVRVCGMQVYQAGSGQLMFMNKYHGRKLSVQGFKEALFQFFHNGRYLRRELLGPVLKKLTELKAVLERQESYRFYSSSLLVIYDGKERPEVVLDSDAEDLEDLSEESADESAGAYAYKPIGASSVDVRMIDFAHTTCRLYGEDTVVHEGQDAGYIFGLQSLIDIVTEISEESGE” here?
A: not soluble

Q: With “TVLENGSWLIDGDTPVNKLKYVLSVDSFPGEEQGYYLTIAGLIMYILQRIPKTGDHMEFNGLRYEVVDMDGIRIDKVMVTKVPEISKD” as the sequence, how does the “soluble on expression in E. coli” value read?
A: not soluble

Q: For “MKIAVVGCDGFGKVHLRAMRNISGIEYYVFSRNEEKARECMKEFNAEGYFTRYEDVIKSNVDIVDLLVSHDQHYPMGVMAMKAGKHLMLEKPIARTIEEAMGLINTSKDTKRKFMVLEQFYFESSVRKAKELLPRLGNLSLIIVRSIHLYQ”, which “soluble on expression in E. coli” value is on record?
A: not soluble

Q: With “GMKDNYDAPESMLTGRVMYNGEALQLRGNEAVQLQLYQHGYAKHDPINVYVNQDGMYSANLFDGEYQMITKSGNGPWTSEGRDTINVTVAGNTVQDVEVTPYYLVRDAQMTLEGNKVNASFKVEKVAGGGIDRVFFMLSTTQFVNDAEHNVDRYDETDNLDAYDETGKLYTFATRDYTDNSMFQTALKRGTLFGRICIWPKGSDQGIYSKVIRLK” as the sequence, how does the “soluble on expression in E. coli” value read?
A: soluble

Q: With “MSRSRSAAASSSQKPDDMDLMSPDGSASSPSAPNTPATNSGGFSSDRKKATHLRCERQRREAINSGYSDLKDLIPQTTTSLGCKTTNAAILFRACDFMSQLKTDISDADKQLAQLNAQAAALEMIASEYEQMASSVPDAGQSTIQVKMLQLLLDDCFTSFSSQVDFTTYATITRTLLSWVESLAPNAEPFKSTAGKMVTMPFTSP” as the sequence, how does the “soluble on expression in E. coli” value read?
A: not soluble

Q: For “MQELINEYRGALQEVNEVKANLQTKIDAKKRPPQAAGQKRTIQEVPEKAIMSKLNSIIRSLEYSIEWMELGHEPAPRRAIHRRSGLQREVCVTDIETMRQWFVYEHGIAYDFEDNEPKISEWDKIRMEDAMSTMSTQEKKVFLLKHEKNLSYSQISDEMEISVRSVRSYLHRGEEKIQNQIDGSLFCMAI”, which “soluble on expression in E. coli” value is on record?
A: not soluble

Q: Which “soluble on expression in E. coli” value does the source give for “MQHFSRSVALLALSAGTLTSLPALAADELHYNQISLRAEVSQEVARDLMIVTLYSESQNTDPAKLAAEITTTMNKALDQARQVKDVTLRQGSRNSYPIYDGKGQKITGWRERAELRLESSDFAALSKLTGELLGDLKMGGMDFAIADPTRKASEDALLKDAVKAFKARAQLATEALGGKGYKIVNLNLNSNGYPQPYMRAPMMMKAASMDSAPVTPEVEAGTSQVSMTADGAIEVLMPLEHHHHHH” here?
A: soluble

Q: For “MSLCDYLERSAKKFPEKVAVQGVRLGHIEAITYAELNTFSDRFSEFLRAQGVTRGEFIPFFMFKEIDSIKSIFSILKADCAYVPLDCKSPEGRLLSIIKSCKAKFIIVNERSESLAERVFSAIPTLKIINISEFVSDTAFVFSASLNISVDLAYVLFTSGSTGTPKGVMISHQAIIDYIGWCTETYNITAIDHVSNHAPLYFDNSTFDIYTSMAAGATLHLVPEEFNVMLPRLIDWIEDNRISIFFCVPSILTLMLQTGRLRTERFVELKHLICAGEVLPTTTAKKILGLFPHLQLTNMYGPTEITVDCTYHVIREADVTSSTSIPIGKPRRNMQLMVLTDDGAVTNERGAIGELMVRGSSVSYGYLDNYAKTQEAFVQNPAHSLYPDMVYKTGDRVTIGEEGLYYYCGRLDNQIKHLGYRIELGEIEANALLLDTVLEAVAVYRSSTSMFESAICMAVKTTVPTDVRTLRAALTSVLPPYMIPGHFVFLDSDFPRTPNGKYDRASILGLFVEGHHHHHH”, which “soluble on expression in E. coli” value is on record?
A: not soluble

Q: Which “soluble on expression in E. coli” value does the source give for “MLARSARLLHSAELAANAIRAASGAPATAAAAEASFPSTDDVAAKTKKTGNRIKTFEIYRFNPEAPGAKPTVQKFDVDLDQCGTMILDALIKIKNEVDPTLTFRRSCREGICGSCAMNIGGQNTLACICKIDSDTSKSTKIYPLPHMFVVKDLVPDMNLFYAQYASIQPWIQKKTPLTLGEKQMHQSVAERDRLDGLYECILCACCSTSCPSYWWNADKYLGPAVLMQAYRWVIDSRDDYATERLHRMHDSFSAFKCHTIMNCTKTCPKHLNPAKAIGEIKSLLTGFTSKPAAEPSAF” here?
A: not soluble

Q: Which “soluble on expression in E. coli” value does the source give for “GMEVNRLSALTPPMGWNSWDCYGASVTEEEVLGNAEYMANHLKKYGWEYIVVDIQWYEPTANSSAYNPFAPLCMDEYGRLLPATNRFPSAKNGAGFKPLSDAIHDLGLKFGIHIMRGIPRQAVYENSPVLGSTKTAREIAHTNSICPWNTDMYGVDPTKEGAQSYYNSLFELYAQWGVDFVKVDDIAASRLYDTHLEEIKMIQRAIQACGRPMVLSLSPGPAPIKYAHHFKTNANMWRITDDFWDDWSLLYQMFERCEVWEKHIGTGHWPDCGMLPLGHIGIRSVDGPGGDRWTRFTKDEQLTMMNLWAICHSPLMFGGELRDNDEWTLSLLTNEGILSINQKSVLNRFVYREEDKVAWAANGRNGEAYVALFNLHDQQKTLQFRLDMVGIMETVQLFNVWDRSFLQSLAPSESFQIELKPHQSMMLKLSPDR” here?
A: soluble

Q: With “SDRWEVPVNPSNVRSASSHQTVSASDRASDKVDERPATFSHFQLARCGEDYTLSMVSLAAYQAERRHRGNLIKDRSQSALPWVQVYHSETGLDYSFQIDRTTTVKVAGFNYNVPNDGETRHLYSAGTSQVNMPVITDNMSACIAVACAAENVDAGTGERRPGAKVRVFHLLPFRREDLMPEQVLASVRDYLRDIKEQGLTMRVALHGGNREGDFSVSTAEALKSLFADEGIPIEFDETCANRTSETLLGAVILNDNSTQFIKH” as the sequence, how does the “soluble on expression in E. coli” value read?
A: not soluble

Q: Which “soluble on expression in E. coli” value does the source give for “MGSDKIHHHHHHMLNMDFSRRVVIRTHEQHWVPSPAAGVERKPLAREEAERGHATSVVRYKPGSSFSTHEHPLGEEILVLEGVFSDETGHYPAGTYIRNPPGSSHAPFSEEGCTLLVKLHQFDPRDTATVRIDTNSGHWLPGIGGLQVMPLHEFEHERVALVKWPPNEAFQPHRHFGGEEIFVLSGEFRDEHGRYPAGSWIRSPHMSQHHPFVEQETVIWVKTGHLPVNHSPET” here?
A: not soluble
